Data as given in patent US10143730B2, “Peptides and combination of peptides for use in immunotherapy against various cancers” (immatics biotechnologies GmbH, priority 2015, dated 2018).

Target: T1, HLA-A*02 (Homo sapiens, UniProt P04439, D140Y/D185E/D98H/E176V/E277Q/G131W/G231S/I119V/I121R/I166T/I218V/L300P/N151K/N90K/P208A/P217A/Q86G/Q94H/R138H/R169H)
T1 construct: made in house
Assay: MHC binding assay, UV-ligand exchange with beta2m ELISA (peptide exchange yield)
Conditions: binding to HLA-A*02
Description: Candidate peptides for T cell based therapies according to the present invention were further tested for their MHC binding capacity (affinity). The individual peptide-MHC complexes were produced by UV-ligand exchange, where a UV-sensitive peptide is cleaved upon UV-irradiation, and exchanged with the peptide of interest as analyzed. Only peptide candidates that can effectively bind and stabilize the peptide-receptive MHC molecules prevent dissociation of the MHC complexes. To determine the yield of the exchange reaction, an ELISA was performed based on the detection of the light chain (β2m) of stabilized MHC complexes. The assay was performed as generally described in Rodenko et al. (Rodenko et al., 2006).
96 well MAXISorp plates (NUNC) were coated over night with 2 ug/ml streptavidin in PBS at room temperature, washed 4× and blocked for 1h at 37° C. in 2% BSA containing blocking buffer. Refolded HLA-A*02:01/MLA-001 monomers served as standards, covering the range of 15-500 ng/ml. Peptide-MHC monomers of the UV-exchange reaction were diluted 100 fold in blocking buffer. Samples were incubated for 1h at 37° C., washed four times, incubated with 2 ug/ml HRP conjugated anti-32m for 1h at 37° C., washed again and detected with TMB solution that is stopped with […]. Absorption was measured at 450 nm. Candidate peptides that show a high exchange yield (preferably higher than 50%, most preferred higher than 75%) are generally preferred for a generation and production of antibodies or fragments thereof, and/or T cell receptors or fragments thereof, as they show sufficient avidity to the MHC molecules and prevent dissociation of the MHC complexes.

Substance | Peptide exchange (MHC class I binding score, peptide exchange yield)
241 (KTIQQLETV; listed as Homo sapiens) [compound 241] | ++ (20%-49% = ++)
15 (YLDLSHNQL; listed as Homo sapiens) [compound 15] | +++ (50%-75% = +++)
84 (ALCPRIHEV; listed as Homo sapiens) [compound 84] | ++++ (> = 75% = ++++)
239 (KMNESTRSV; listed as Homo sapiens) [compound 239] | ++ (20%-49% = ++)
71 (VLHSKFWVV; listed as Homo sapiens) [compound 71] | +++ (50%-75% = +++)
261 (QLQDRVYAL; listed as Homo sapiens) [compound 261] | +++ (50%-75% = +++)
55 (SLATKIVEA; listed as Homo sapiens) [compound 55] | +++ (50%-75% = +++)
100 (ALLGMIIVGV; listed as Homo sapiens) [compound 100] | + (<20% = +)
76 (AVGPVHNSV; listed as Homo sapiens) [compound 76] | ++ (20%-49% = ++)
49 (ALNIATHVL; listed as Homo sapiens) [compound 49] | +++ (50%-75% = +++)
146 (ALHFSEDEI; listed as Homo sapiens) [compound 146] | ++ (20%-49% = ++)
246 (TVSDVLNSV; listed as Homo sapiens) [compound 246] | +++ (50%-75% = +++)
74 (TLFGYSVVL; listed as Homo sapiens) [compound 74] | +++ (50%-75% = +++)
65 (SVVPDVRSV; listed as Homo sapiens) [compound 65] | ++ (20%-49% = ++)
135 (HLSTIIHEA; listed as Homo sapiens) [compound 135] | +++ (50%-75% = +++)
73 (YTLREVDTV; listed as Homo sapiens) [compound 73] | ++ (20%-49% = ++)
77 (TLIDEQDIPLV; listed as Homo sapiens) [compound 77] | +++ (50%-75% = +++)
108 (ILLKNLVTI; listed as Homo sapiens) [compound 108] | ++ (20%-49% = ++)
265 (NTCPYVHNI; listed as Homo sapiens) [compound 265] | +++ (50%-75% = +++)
61 (AIVKEIVNI; listed as Homo sapiens) [compound 61] | ++ (20%-49% = ++)
3 (KLEENGDLYL; listed as Homo sapiens) [compound 3] | ++++ (> = 75% = ++++)

Substance | Peptide exchange (MHC class I binding score, peptide exchange yield)
9 (FLVDGSYSI; listed as Homo sapiens) [compound 9] | +++ (50%-75% = +++)
254 (KLQGKLPEL; listed as Homo sapiens) [compound 254] | ++ (20%-49% = ++)
136 (FLFGGVLMTL; listed as Homo sapiens) [compound 136] | ++ (20%-49% = ++)
130 (SLLGGTFVGI; listed as Homo sapiens) [compound 130] | +++ (50%-75% = +++)
85 (VLNDILVRA; listed as Homo sapiens) [compound 85] | +++ (50%-75% = +++)
148 (MLAGIAITV; listed as Homo sapiens) [compound 148] | +++ (50%-75% = +++)
155 (LLNPVVEFV; listed as Homo sapiens) [compound 155] | +++ (50%-75% = +++)
266 (YAIGLVMRL; listed as Homo sapiens) [compound 266] | +++ (50%-75% = +++)
262 (FMVDKAIYL; listed as Homo sapiens) [compound 262] | +++ (50%-75% = +++)
118 (QLWQFLVTL; listed as Homo sapiens) [compound 118] | +++ (50%-75% = +++)
94 (LLLPAVPVGA; listed as Homo sapiens) [compound 94] | +++ (50%-75% = +++)
119 (FIIQGLRSVGA; listed as Homo sapiens) [compound 119] | +++ (50%-75% = +++)
72 (FLTAINYLL; listed as Homo sapiens) [compound 72] | +++ (50%-75% = +++)
28 (SLPNGKPVSV; listed as Homo sapiens) [compound 28] | +++ (50%-75% = +++)
260 (ILLEKILSL; listed as Homo sapiens) [compound 260] | +++ (50%-75% = +++)
59 (KLLDPQEFTL; listed as Homo sapiens) [compound 59] | +++ (50%-75% = +++)
79 (VTFKEYVTV; listed as Homo sapiens) [compound 79] | ++ (20%-49% = ++)
30 (AMIEEVFEA; listed as Homo sapiens) [compound 30] | ++ (20%-49% = ++)
240 (YMGEEKLIASV; listed as Homo sapiens) [compound 240] | +++ (50%-75% = +++)
82 (FIFDEAEKL; listed as Homo sapiens) [compound 82] | + (<20% = +)
78 (TVVTRLDEI; listed as Homo sapiens) [compound 78] | ++ (20%-49% = ++)

Substance | Peptide exchange (MHC class I binding score, peptide exchange yield)
88 (AQADHLPQL; listed as Homo sapiens) [compound 88] | ++ (20%-49% = ++)
51 (LLFSRLCGA; listed as Homo sapiens) [compound 51] | ++++ (> = 75% = ++++)
101 (ALADFMLSL; listed as Homo sapiens) [compound 101] | +++ (50%-75% = +++)
95 (GLLGSLFFL; listed as Homo sapiens) [compound 95] | ++++ (> = 75% = ++++)
257 (GLYTDPCGV; listed as Homo sapiens) [compound 257] | ++++ (> = 75% = ++++)
129 (RLQDILWFL; listed as Homo sapiens) [compound 129] | ++++ (> = 75% = ++++)
53 (KMVGLVVAI; listed as Homo sapiens) [compound 53] | +++ (50%-75% = +++)
57 (TVFTDHMLTV; listed as Homo sapiens) [compound 57] | ++ (20%-49% = ++)
122 (GVVDPVHGV; listed as Homo sapiens) [compound 122] | ++ (20%-49% = ++)
68 (SLSNRLYYL; listed as Homo sapiens) [compound 68] | +++ (50%-75% = +++)
132 (ILGEVLAQL; listed as Homo sapiens) [compound 132] | +++ (50%-75% = +++)
114 (QLIQTLHAV; listed as Homo sapiens) [compound 114] | +++ (50%-75% = +++)
112 (SLGKFTFDV; listed as Homo sapiens) [compound 112] | ++++ (> = 75% = ++++)
245 (SLLDLPLSL; listed as Homo sapiens) [compound 245] | ++++ (> = 75% = ++++)
104 (ALISWQPPRA; listed as Homo sapiens) [compound 104] | +++ (50%-75% = +++)
133 (ALLPRLHQL; listed as Homo sapiens) [compound 133] | ++++ (> = 75% = ++++)
34 (FLLATEVVTV; listed as Homo sapiens) [compound 34] | ++++ (> = 75% = ++++)
40 (VLIDPQWVLTA; listed as Homo sapiens) [compound 40] | +++ (50%-75% = +++)
70 (LLLGDSALYL; listed as Homo sapiens) [compound 70] | +++ (50%-75% = +++)
